Experiment: soluble on expression in E. coli; label from the status in PepcDB or PDB records

Sequence | soluble on expression in E. coli
MLKNTYIHIPGVGKALEQKIWASGIHTWDEFLEMEDRVLIPSVKKARICEGIKVSSSHLAAKDCFFFSQRLPSAEHWRAYSLFSDSVAFFDIETTGLSPCRDKITVVGIYNGNEVKTYVRGTNLEDLVEEFSRYRLLVSFNGARFDIPFIKSEFPEIEFKQLHIDLMYPLRRIGYGGGLKKIEKLLGICRSEDTDGMDGFDAVRLWKKYEKGDLEALNLLVKYNREDIVNLKTIIELTYPKMVENALKILEHHHHHH | not soluble
MKIAIIGAGNMGGSIARGLAKGSLIADSDIIVSNPSAGKLEKLKEEFPGISTTLSNTEAATGADVVILAVKPWFVESVMRELKLKSKQTLVSVAAGISFEELAHFVIAPEMPMFRLIPNTAISELESMTLIAARNTNDEQNLFMLRLFNEMGMAMLIPEDKIAATTALTSCGIAYVLKYIQAAMQAGIEMGIRPKDAMEMVAQSVKGAAALILNNDTHPSVEIDKVTTPGGITIKGINELEHNGFTSAVIKAMKASK | soluble
MGSDKIHHHHHHVGNLLVNLAMVLRQPTGISTYALSLLPYLRSLQPTLLSDRLYEGFDHQLISSRLCSDRGRRARLARLYWTQTQVPKLYRRLGSRLLFSPAPEAPIDRHCRSVVMVHDLRPLQLPSHSWQTYYFRWVVPKIVAQASHVLCNSEATATDLCHFYQLPAQKITPIYLGYDRQHYQPWSGKTSNYFLHIGQQFPHKNLERLIRAFAQLPTDYQLYLAGSRHASETPRLEQLVHSLGLRDRVQFLRYVDYADLPRLIGEAIALVYPSLWEGFGLPILEAMACGTPVITAHGSSLSEVGGEAVLYVDPYRIEAIAAAMRDLIDDSNLRQSLRDRGFQQASRFSWEATGKETCQVLEKFL | not soluble
MNKFKLGSDFDHLVNSLSDVELLNLFIQSCSQTTINGVPVPRFPPEEIQKQFVGASYEHALYEAYLFYRHIKEYAQNLGVPLNKESKVLDFGCGWGRIIRFLFKDASDQNLLGIDVDPAMITLCNETLGRGIYKTASPHPPVEFISDNSLDIIFAYSVFSHLSEATAENWVKEFSRVLRPGGIFIATTQARYFLDFCQQFQEHPELIQTGWHKTLSQAFPDIHRAISDYENGKFVHSPTGAGDVRNSSFYGETVIPRTYIENHYEKYLKLQDFFDDVNRLPQALFVLQKILEHHHHHH | not soluble
GTEDTVIKVSVLRGPSVIAFADWLENPPIIDNKKVQVKVVDSPDLAQALLIKQETDIAVLPMINAANLYNKGIKIKLAGCPIWGTLYLVEKTPLKEPALYVFGNGTTPDILTRYYLGRQRLDYPLNYAFNTAGEITQGILAGKVNRAVLGEPFLSIALRKDSSLRITADLNHLTDNDTLGFAQTAVVYTPTMEKYRIAFEDALRASCQKAVRYPKETIHSLEEHGIFAQGALTPKSIERCKIYYLSAIEAKDAVMGFLRLIEQYEPKAVGGRLPDAGFIPEKQ | soluble
MAQLAKTAVAALSKKLVAPAAVARRTLATEASPEDYGYYPDPLEHATGREKKMLLARLAGDDRYEPKVYYRAEASTKQKPNLVPSHYDFRIIGCMCEQDSGHVNFMTIRKGDPKRCECGHWFKGVDADPESI | not soluble
SFFMGEKTFYHIKKENLILKARMFGKITSLGISGFVMQGTNCLVQIVCNKMLFMYGGDMYVGIMTVINSVREILSVPGSTLGSGAQPVLGYNYGAKQYERVRKA | not soluble
MKLCGKLANITTVDYGGIACHAGVDRRISLHNFTISLPESGNPMSATFDPDNLRASLLALNVIDPLSLDGQAYQRFYGLAGLGGENVVRSWLGRLDVDGYEIVGQVWLPESPVATLFLFHGFYDHMGLYRHVIEWALTQGFAVISCDLPGHGLSSGSRASINDFAEYQVVLQRLLLEAGSLGLPHPWHLCGQSTGGAIVIDHLLHQGAESPAQGEVILLAPLVRPRAWGWSRFSYRLLKPFVSGIARRFTENSNAPAFLPFLLADPLQPRRLPTAWVGALAQWIVRVESAPRSLRSPIIIQGDADMTVDWSHNLAVLKDKFSQPHILMLGHARHHLANETPELRARYFDFVKGRLG | not soluble
MGSDKIHHHHHHMGFEMTRGHLTWNDFKIVMAIANAGSLSGAARSLGVNHATVFRRLGDIERRLGVALFERSRKGYKPSLAGEELANTARIMDEAAHSAERKVAGRDLRPSGEIWVTTTDSLLMGLLAPLFKEFRNRYPDIVLDVAVANEMLNLTRREADVGIRPVNRPPENLIGRRLATVGQAIFGHRNLGLDKGQSIDFLSQQPWIGAGPRLQDSVLEQWMAQKNLADACVFRVDTLVGLLSAVNEGLGLAALPCYLAETCPDIVQLSDPIPELNYDLRKPLKVATHST | not soluble
DYSQKLQNLISEQLVGCGFNEILNNSLTAASYYEGSETYKNENLVYLMNPLSNDLNVMRQTLLFGGLESIQHNANRKNADLKFFEFGNCYFYNAEKKNPEKVLAAYAEEYHLGLWVTGKRVSNSWAHPDENSSVYELKAYVLNIFTRLGLNFGNVVFGNLTNDIYSTAISVHTRGGKLLATFGIISKKIQKAFDIDNEVYYAEINWKELM | not soluble
GVSETAPASRRGELAVCDAVSGWVTDRRTAVDLRGREVEVLGEVPAAGGSPLRQYFFETRCKADNAEEGGPGAGGGGCRGVDRRHWVSECKAKQSYVRALTADAQGRVGWRWIRIDTACVCTLLSRTGRA | soluble
SLSEKVIDMYKSENCGCCSLWGKAMEKDGFEVRTHIMNDQALSALKEKHAIPAGLRSCHTAVAGNLIIEGHVPATTIHKAMQSGSGIYGLATPGMPAGSPGMEMGARKEAYDVIAFSPDGSKKVFQRIE | soluble
MGSDKIHHHHHHADGRYIEVTGTSEIEIVPDRIHYIIEIREYFEEEFDGRSKPEEYRTKISLDRIEQGLREVLHDAGISPNAVRTQEIGDYWRKQGQDFLVAKTFDITLLDFKQIDEILKRMDTKGIHTMRIGELENKDMLSYHQKGKIAALKAAQRKASYLVEALGKKLGPVIRIVEDEAGSSLPFSQSNVLSSSVVSFDSFRTIKKKYSMLVRFEIAD | not soluble
SRTPAKGNGADPIRLPVRSGIRESRLEFHYHYSNFLVYGEAGSGKTKSIGKWLLSEYMRLGFAGFIYDFKDTDYTRTAYNLIKRHRYPHKFYYVSFDRPERSYRFNPLKVVRDRTELIQLMEDVLLALLPKKEQQNEWVAGGLGILRGVAFRFWDEFPEHCTLPHILAFIMTASARQLSLFLQQNLVSEMLAGAYLKAEGSEKTQASYLSTLCNNLATISQNEEIAYVLSGDDFDFNLIDPETPKLFAVSNNFSKNSVYAPVISMLMTISARQFSMQNRVPFVYFLDEMTTVNIKNFETLPSVLREYKAAFILLTQSGAKLENLYGKLDRSSVEANFGNMFLGRTKDVEALKYYPLFFGKEEKERRSRSSGKSGASSSSSVTVSSQKEDIYQGKDFADLEPGEFIGSATRANVSYFKVKLEMYDDRNEEPLPDVRVLEPGELGRNFARILEEVRELFPCE | not soluble
MKISEIENTFKEKLSVSLKKQEDTIRRQSLAENQGKLEVMENMNRVLSEAIESLQSQHSKDTEIIKAGLRTKGDRVTYVDNLRVEKKALEETVSQLRSENDKLKKIIRGESTNKPVLRSRTTKP | not soluble
MGSDKIHHHHHHMRTEFIPPSVTRAAFRLPTLSRLPPLTALRAFVVAARHASFSRAAEELHVSTAAIGQQVRILETHLGQPLFSRQRGELVLTDAGSTLYPGLADAFETMIGSLSDLMASGSRRQVKVLAEGCFAARWLAPRLGRIVPALGDVDIWIESLEGDAIDLTQFDADCAIVATHGQIPGFIHEPLFADTVSAVCTPDFAARHQLCGEPERLRDISFAMLRGNGGDAAFEWANWLRACRIPLRLSATGPRFSRQTALIEAILSGHGIGLARHSLISDELKSGRLIAAFGTPQPTASRYHLLTSPDRRRLPEIASLLALLREDIRSLEAAA | not soluble
MSNYVIQADQQLLDALRAHYEGALSDRLPAGALFAVKRPDVVITAYRSGKVLFQGKAAEQEAAKWISGASASNETADHQPSALAAHQLGSLSAIGSDEVGTGDYFGPIVVAAAYVDRPHIAKIAALGVKDSKQLNDEAIKRIAPAIMETVPHAVTVLDNPQYNRWQRSGMPQTKMKALLHNRTLVKLVDAIAPAEPEAIIIDEFLKRDSYFRYLSDEDRIIRERVHCLPKAESVHVSVAAASIIARYVFLEEMEQLSRAVGLLLPKGAGAIVDEAAARIIRARGEEMLETCAKLHFANTKKALAIAKRRK | soluble
MGSDKIHHHHHHMEREKVELFKEVLKKLHKGEDVESLKKQFGELLSQIPPFEIPVIEQELLKSGEIDVRDIIKMCDLHVEFFRGAVSEAGREIEKLPNGHPLRTLYEENKQILKDAEALSLLASSMFSLPKDDPRRKQFYEKLVQHVSELHRIGLTHYTREEMLIFPYIERRGITAVPTVLWSKHDETRLKIRLLLNLLKKEESDERLKEEALELSRMLSDMVFRENNILYPTLKVLLTEGEWKAIKMLEKDIGYYKIEVTEEWETPEKPLLPHRNCLRRPIPFRGLGGSRHVYHLQIQ | not soluble
MPGFNYGGDQDEVYTPYRRVLVTGATGLLGRAVYKEFKNNDWDALGCGYNRARPFFLKCNLLDEDAVRGVIQSFQPHVIVHCAAERRPDVVERHTEAAMNLNVHACATLAKEAGGSFLIYISTDYVFDGRNPPYGENDAPNPLNLYGKSKLEGEREILRHCPGAAVLRVPILFGEVEKVEESAVTVLFERVQEGAESCTIDHCQQRFPTYTNDVARVCRNMAERALQDQSLRGIFHYSAKEQMTKYEMTCAIADAFNLPSSHLIPMTEQPAGAGAQRPQNAQLECSRLELLGLSVESTPFKNAIRDSLWPFQHDKRWRQTVFH | soluble
LDPSGKSVIYTKSLAFEKALVRPEKEVKKVHTALDALNSSLADGRGVDFAYMMSIYQVESQMTLIEELGDLIMPDPEKYLNGELTYVSRQDFLSGDVVTKLEVVDLFVKQDNQDFNWSHYAGLLEAIKPARITLADIDYRIGSRWIPLAVYGKFAQETFMGKAYELSDQEVATVLEVSPIDGVITYQSKFAYTYSNATDRSLGVPASRYDSGRKIFENLLNSNQPTITKQVVEGDKKKNVTDVEKTTVLRAKETHLQELFQGFVAKYPEVQQMIEDTYNRLYNRTVSKSYDGSHLTIDGLAQNISLRPHQ | not soluble
MGSDKIHHHHHHMTLLDRFDGGFARDGEDIIAGSRIEDARIHNRRLVFETIFQRGPISRVEISAIVGLKPQTISSITRELLEQELIVEAGRSSGLRGQPQIYLEANAEAGFSIGVHLDQNQCHILVFDLKRQERARKSMRCDTANPDVTVRMLAQTITTLLHDNALPAERIWGLGLVLPTFGSDVYDFDFSMRHWEAWRDASFAEDLQRLTGFAVLVENDGTAAAIGERLHRHDAQEASFAYFYIGHGAGAGLIIDGYPFKGVGGNAGEIGLLPILGLGANPVWPDNPSSAVQGGVLSIGGLAAACGLSEQSMDEQSILSLLERRDHRLMDWLASAASVLRDVCAVIEVMFDPGFIAVGGALPRALVERLVDRAYPLRPTPSARRDRALPRLLPATLIEDAAVTGAAMLPIFVTTSHNFRHLYFRQILADDRS | not soluble
QPLGGESICSARAPAKYSITFTGKWSQTAFPKQYPLFRPPAQWSSLLGAAHSSDYSMWRKNQYVSNGLRDFAERGEAWALMKEIEAAGEALQSVHEVFSAPAVPSGTGQTSAELEVQRRHSLVSFVVRIVPSPDWFVGVDSLDLCDGDRWREQAALDLYPYDAGTDSGFTFSSPNFATIPQDTVTEITSSSPSHPANSFYYPRLKALPPIARVTLLRLRQSPR | soluble
GSHMVMNTHPYQSEAVSDVWSLSKTSMTFQPKKASLQPLTISLDELFSSRGEFISVGGNGRMSHKEAILLGLRYKKLYNQARVKYSL | soluble
